Usually Kd stands for the concentration at which binding is half-saturated.

The source of these data is article PMC11322871, “AlphaFold2 assists in providing novel mechanistic insights into the interactions among the LUBAC subunits” (Acta Biochimica et Biophysica Sinica, 2024).

First the molecules themselves.
T1: HOIP (466-695) (human, UniProt Q96EP0 466-695)
T1 construct: HOIP, human, residues 466-695 (HOIP-UBA together with HOIP 629-695); also called HOIP domain (residues 466-695)
T1 sequence (looked up): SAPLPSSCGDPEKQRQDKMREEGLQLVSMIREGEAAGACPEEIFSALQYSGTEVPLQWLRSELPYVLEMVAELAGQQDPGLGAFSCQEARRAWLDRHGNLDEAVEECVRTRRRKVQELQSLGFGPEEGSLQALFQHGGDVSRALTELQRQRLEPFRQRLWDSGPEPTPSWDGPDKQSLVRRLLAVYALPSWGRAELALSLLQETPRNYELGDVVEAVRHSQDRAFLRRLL

B1: HOIP (629-695) (domain or fragment)
chain: PEPTPSWDGPDKQSLVRRLLAVYALPSWGRAELALSLLQETPRNYELGDVVEAVRHSQDRAFLRRLL
B2: HOIL-1L-UBL domain (residues 55-135) (domain or fragment, human, UniProt Q9BYM8-1 55-135, looked up)
chain: IRLWVSVEDAQMHTVTIWLTVRPDMTVASLKDMVFLDYGFPPVLQQWVIGQRLARDQETLHSHGVRQNGDSAYLYLLSARN
notes: HOIL-1L, human, UBL domain, residues 55-135; also called HOIL-UBL

In experiment [1] the target is HOIP-UBA domain (residues 466-629) (human) (UniProt Q96EP0). The experiment is described as follows: SPR; Biacore T200; the HOIL-1L and SHARPIN constructs mixed at the same concentration and incubated at 16°C for 2 h before analysis against HOIP-UBA (466-630); who was immobilised is not stated. (In general: Surface plasmon resonance follows binding to a sensor surface in real time, without labels.)

The target in experiment [2] is B2. The experiment is described as follows: SPR; Biacore T200; HOIL-1L-UBL immobilised on the sensor chip, HOIP fragments flowed over.
The target of experiment [3] is B2. The experiment is described as follows: ITC; MicroCal PEAQ-ITC; cell and syringe not stated.
In experiment [4] the target is T1, HOIP (466-695). In words: SPR; Biacore T200; HOIL-1L-UBL immobilised on the sensor chip, HOIP fragments flowed over. To be noted: both partners purified.
In experiment [5] the target is T1, HOIP (466-695). The experiment is described as follows: ITC; MicroCal PEAQ-ITC; cell and syringe not stated. To be noted: both partners purified.

For the molecule “HOIL-1L-UBL and SHARPIN-UBL without the LTM domain, mixed before SPR (from UniProt Q9BYM8-1 55-135; Q9H0F6 206-309) (complex)”, the Kd in experiment [1] was determined as 0.0721 µM.

“HOIL-1L (5-135) and SHARPIN (127-309), containing the LTM domain, mixed before SPR (from UniProt Q9BYM8-1 5-135; Q9H0F6 127-309) (complex)” displayed an equilibrium dissociation constant (Kd) in experiment [1] of 0.496 µM.

On to “HOIP-UBA domain (residues 466-629) (from UniProt Q96EP0 466-629) (domain or fragment)”, for which the equilibrium dissociation constant (Kd) was 0.543 µM in experiment [2] and 4.3 µM in experiment [3].

In turn, B1 returned an equilibrium dissociation constant (Kd) in experiment [2] (both partners purified) of 0.989 µM.

Turning to B2, the equilibrium dissociation constant (Kd) with HOIP (466-695) [4] is 0.359 µM; with HOIP (466-695) [5] it was 0.8 ± 0.2 µM.
